In patent publication EP4631959A2, “NOVEL MINIGASTRIN-DERIVED CHOLECYSTOKININ 2 RECEPTOR BINDING MOLECULES FOR IMAGING AND TARGETED RADIOTHERAPY” (priority 2022, dated 2024):
Read-outs that look alike come from different tables or passages of the source. Starred links: 1 amine or outer side, 2 acyl side, 3 side chain; linkers in the order of their positions; H or OH if unused. Non-standard residues stand in square brackets, D forms with d. Residues, ends and D or L forms follow the SMILES beside them. *: point of attachment. Benzoyl(4-SiFtBu2) = CC(C)(C)[Si](F)(c1ccc(C(=O)*)cc1)C(C)(C)C; DOTA = O=C(O)CN1CCN(CC(=O)O)CCN(CC(=O)*)CCN(CC(=O)O)CC1; d(γGlu) = O=C(O)[C@@H](CCC(=O)[*:2])N[*:1]; 1Nal = N[C@@H](Cc1cccc2ccccc12)C(=O)O; Hyp = O=C(O)[C@@H]1C[C@@H](O)CN1; NMeNle = CCCC[C@H](NC)C(=O)O; PEG4 = NCCOCCOCCOCCOCCC(=O)O; dDap = NC[C@@H](N)C(=O)O

What was measured:
[1] = target: T1, Human serum albumin (HSA) (Homo sapiens, UniProt P02768); experiment: Determination of HSA binding on a Chiralpak HSA column; type: in vitro ADME; conditions: Tab. 8; metal not stated (Fig. 18: ^natLu)
T1 construct: purchased Daicel, Tokyo, Japan H13H-2433
T1 sequence (P02768 25-609): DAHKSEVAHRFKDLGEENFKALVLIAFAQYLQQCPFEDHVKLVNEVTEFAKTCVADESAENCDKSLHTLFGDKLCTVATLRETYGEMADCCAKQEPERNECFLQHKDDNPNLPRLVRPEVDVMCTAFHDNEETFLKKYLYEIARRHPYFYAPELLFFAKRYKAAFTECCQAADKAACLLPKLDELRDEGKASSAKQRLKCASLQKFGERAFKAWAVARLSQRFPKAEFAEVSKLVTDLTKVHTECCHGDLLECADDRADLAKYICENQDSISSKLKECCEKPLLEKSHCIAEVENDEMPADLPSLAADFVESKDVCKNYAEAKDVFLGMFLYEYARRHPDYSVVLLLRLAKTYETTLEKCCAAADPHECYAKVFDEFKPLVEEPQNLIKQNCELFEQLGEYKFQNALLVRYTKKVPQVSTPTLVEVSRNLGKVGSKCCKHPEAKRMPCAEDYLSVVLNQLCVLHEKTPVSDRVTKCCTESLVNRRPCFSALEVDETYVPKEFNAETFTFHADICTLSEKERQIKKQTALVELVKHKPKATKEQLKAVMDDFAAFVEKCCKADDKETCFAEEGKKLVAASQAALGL
Method in brief: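 Retention on an HSA column with a 50 mM NH4OAc (pH 6.9)/isopropanol gradient at 0.5 mL/min, rt; samples run at 0.5 mg/mL in A/B (1/1). Binding derived by non-linear regression against nine reference compounds spanning 13 to 99% HSA binding.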

[2] = Biodistribution in AR4-2J tumor-bearing CB17-SCID mice; type: in vivo; conditions: female, CB17-SCID, mouse, in vivo, iv, 100 pmol, total radioactivity, 100 pmol; for tissue uptake at 1 h: 1 h p.i.; for tissue uptake at 2 h: 2 h p.i.; for tissue uptake at 4 h: 4 h p.i.
Method: All animal experiments were conducted in accordance with general animal welfare regulations in Germany (German animal protection act, in the edition of the announcement, dated May 18th, 2006, as amended by Article 280 of June 19th 2020, approval no. ROB-55.2-1-2532.Vet_02-18-109 by the General Administration of Upper Bavaria) and the institutional guidelines for the care and use of animals. CB17-SCID mice of both genders (Charles River Laboratories International Inc., Sulzfeld, Germany) were let to acclimate at the in-house animal facility at least for one week before inoculation was performed. To establish tumor xenografts, AR4-2J cells (5.0 × 10^6 cells per 200 µL) were suspended in a 1/1 mixture (v/v) of Dulbecco modified Eagle medium / Nutrition Mixture F-12 with Glutamax-I (1/1) and Cultrex® Basement Membrane Matrix Type 3 (Trevigen, Gaithersburg, MD, USA) and inoculated subcutaneously onto the right shoulder of 6-10 weeks old CB17-SCID mice (Charles River, Sulzfeld, Germany). Mice were used for experiments when tumors had grown to a volume of 150-300 mm^3 (1-2 weeks after inoculation). Exclusion criteria for animals from an experiment were either a weight loss higher than 20%, a tumor size above 1,500 mm^3, an ulceration of the tumor, a respiratory distress or a change of behavior. None of these criteria applied to any animal from the experiment. Neither randomization nor blinding was applied in the allocation of the experiments. Health status is SPF according to FELASA.
Approximately 1-5 MBq (100 pmol) of the radiolabeled minigastrin analogues were injected into the tail vein of AR4-2J tumor-bearing female CB17-SCID mice and sacrificed at 1 to 24 h post injection (n = 4-5). Selected organs were removed, weighted and measured in a γ-counter.

CCK-2R = experiment: Competition studies in AR4-2J tumor-bearing CB17-SCID mice; type: in vivo; conditions: co-administration of excess unlabeled competitor (40 nmol), 24 h p.i.
Method: For competition studies, the radiolabeled compound (approx. 1-5 MBq, 100 pmol) was co-injected with [^natLu]Lu-DOTA-MGS5 (40 nmol) into the tail vein of AR4-2J tumor-bearing CB17-SCID mice and sacrificed at 1 to 24 h post injection (n = 2). Selected organs were removed, weighted and measured in a γ-counter.

[3] = n-Octanol-PBS distribution coefficient (logD7.4); type: physicochemical; conditions: pH = 7.4, ^177Lu-labeled
Method: Approximately 1 MBq of the labeled tracer was dissolved in 1 mL of a 1/1 mixture (v/v) of phosphate buffered saline (PBS, pH = 7.4) and n-octanol in an Eppendorf tube (1.5 mL). After vigorous mixing of the suspension for 3 min at rt, the vial was centrifuged at 9,000 rpm for 5 min (Biofuge 15, Heraeus Sepatech, Osterode, Germany) and 200 µL aliquots of both layers were measured in a γ-counter. The experiment was repeated at least five times.

[4] = In vivo stability studies in murine serum and urine; set-up: species or system CB17-SCID mice; conditions: 30 min p.i.
Method: Stability studies were performed via injection of the ^177Lu-labeled peptide (approx. 35 MBq, 1 nmol) into the tail vein (n = 3) of anesthetized (2% isoflurane) CB17-SCID mice. At 30 min p.i. the mice were euthanized and a urine as well as a blood sample were taken. The urine sample was analyzed without further treatment. The blood sample was centrifuged at 5,000 rpm for 2 min. Afterwards, the serum was collected and ice-cold MeCN (1:1, v/v) as well as EtOH (1:2, v/v) were added. The sample was centrifuged at 5,000 rpm for 2 min once more and the supernatant was analyzed via RP-HPLC (10→30% in 5 min, 30→60% in 15 min, MeCN/H2O + 0.1% TFA).

[5] = read-out: activity levels in the blood
[6] = read-out: activity levels in the tumor

CCCC[C@@H](C(=O)N[C@@H](CC(=O)O)C(=O)N[C@@H](Cc1cccc2ccccc12)C(N)=O)N(C)C(=O)[C@H](Cc1c[nH]c2ccccc12)NC(=O)CCOCCOCCOCCOCCNC(=O)CC[C@@H](NC(=O)[C@@H]1C[C@@H](O)CN1C(=O)[C@@H]1C[C@@H](O)CN1C(=O)[C@@H]1C[C@@H](O)CN1C(=O)[C@@H]1C[C@@H](O)CN1C(=O)[C@@H]1C[C@@H](O)CN1C(=O)[C@@H]1C[C@@H](O)CN1C(=O)CC[C@@H](NC(=O)[C@@H](CNC(=O)c1ccc([Si](F)(C(C)(C)C)C(C)(C)C)cc1)NC(=O)CN1CCN(CC(=O)O)CCN(CC(=O)O)CCN(CC(=O)O)CC1)C(=O)O)C(=O)O [DOTA-rhCCK-84, DOTA-dap(SiFA)-γ-glu-(Hyp)6-γ-glu-(PEG)3-Trp-(N-Me)Nle-Asp-1-Nal-NH2] ({DOTA}-[dDap](Benzoyl(4-SiFtBu2))[d(γGlu)][Hyp][Hyp][Hyp][Hyp][Hyp][Hyp][d(γGlu)][PEG4]W[NMeNle]D[1Nal]-NH2)
HSA binding [%] [1]: 90.0%
tissue uptake at 1 h [2, 5]: 11.3 ± 1.3 %ID/g
tissue uptake at 1 h ([2]; read-out: tumor uptake): 36.3 ± 3.7 %ID/g
tissue uptake at 2 h [2, 5]: 3.71 ± 0.46 %ID/g
tissue uptake at 2 h [2, 6]: 35 ± 2.9 %ID/g
tissue uptake at 4 h [2, 5]: 1.14 ± 0.18 %ID/g
tissue uptake at 4 h [2, 6]: 34 ± 3.6 %ID/g
tissue uptake at 24 h ([2]; 24 h p.i., read-out: activity levels in the kidneys): < 10 %ID/g
activity levels in stomach and tumor in competition studies (CCK-2R specificity) (CCK-2R): significantly decreased activity levels in both stomach and tumor
logD7.4 (n ≥ 5), ^177Lu-labeled [3]: -2.14 ± 0.06
logD7.4 (n ≥ 5), ^177Lu-labeled ([3]; listed as [^nat/177Lu]Lu-DOTA-rhCCK-84): -2.14 ± 0.06
in vivo stability in the serum (intact compound) ([4]; murine serum): 93.5 ± 2.1%
in vivo stability in the urine (intact compound) ([4]; murine urine): 55.4 ± 9.0%
